Measured values: article PMC10439028, “SGLT5 is the renal transporter for 1,5-anhydroglucitol, a major player in two rare forms of neutropenia” (Cellular and Molecular Life Sciences: CMLS, 2023)

How the values were obtained:
[1] = substrate: OC[C@H]1OC(O)[C@@H](O)[C@@H](O)[C@@H]1O; assay: Radioactive uptake assay (saturation kinetics) in HEK293T cells stably overexpressing human SGLT5-iso2; type: cell-based; details: other: transport of the labelled substrate, Michaelis-Menten fit, Fig. 2B; pH 7.4; 37.0 °C
Source text: (§1) This assay was used to study (1) the transport of 1,5-AG or mannose by the HEK293T model cell lines that stably overexpressed the various transporters or by the transiently transfected HEK293T cells using JetPEI® as a transfection agent prepared as described above and (2) the substrate specificity of each transporter.
(§2) For a typical transporter experiment we proceeded as follows. […] To minimize cell loss during the various washing steps in the radioactive uptake experiments, the wells where the cells were seeded were previously coated with poly- D-lysine, which improved their adhesion to the plastic surface of the wells. For this, each well of the 24-well plates was treated with 200 µl of a 0.01% poly-L-lysine solution for 10 min, washed 3 times with 1 ml of sterilized water and left to dry for 2 h. Only then could the 24-well plates be seeded with the appropriate cell lines and cultured overnight at 37 °C in 5% CO2.
(§3) On day two, the radioactive uptake assay could be performed. The cell culture media was removed by aspiration and cells were incubated for 20 min at 37 °C and 5% CO2 with a basal medium (10 mM HEPES, pH 7.4, 1 mM CaCl2, 1 mM MgCl2, 2 mM KCl) containing 140 mM choline chloride to deplete intracellular […] ions. This was subsequently replaced with the uptake medium (basal medium + 140 mM NaCl, 25 μM cytochalasin B, 1 mg/ml BSA) containing either radioactive U-[^14C]-mannose (15,000 cpm/well) or 2-[^3H]-1,5-AG (30,000 cpm/well) and respectively, non-radioactive mannose or 1,5-AG, at the required concentration in the experiment. […]
(§4) Once the uptake medium was added to the cells, the plates were incubated at 37 °C in 5% CO2 during the required time. […] In each experiment, the transport activities were calculated after subtracting a “blank” value, corresponding to the radioactivity in the appropriate control cells (HEK293T cells that were stably or transiently transfected with one of the parent plasmids pEF6/MycHisA, pEF6HisB, pUB82 or pUB83 with no inserted cDNA) that were analyzed in parallel.

[2] = substrate: OC[C@H]1OC[C@H](O)[C@@H](O)[C@@H]1O; assay: as above; type: cell-based; details: pH 7.4, 37.0 °C
Source text: as §1, §2, §3, §4

[3] = substrate: OC[C@H]1OC[C@H](O)[C@@H](O)[C@@H]1O; assay: 1,5-AG uptake in HEK293T cells overexpressing SGLT5 variant Arg401His; type: cell-based, human; details: other: variant Arg401His (rs754390288); pH 7.4; 37.0 °C
Method: as §2
(§5) On day two, the radioactive uptake assay could be performed. The cell culture media was removed by aspiration and cells were incubated for 20 min at 37 °C and 5% CO2 with a basal medium (10 mM HEPES, pH 7.4, 1 mM CaCl2, 1 mM MgCl2, 2 mM KCl) containing 140 mM choline chloride to deplete intracellular Na^2+ ions. […]
(§6) Once the uptake medium was added to the cells, the plates were incubated at 37 °C in 5% CO2 during the required time. […] In each experiment, the transport activities were calculated after subtracting a “blank” value, corresponding to the radioactivity in the appropriate control cells (HEK293T cells that were stably or transiently transfected with one of the parent plasmids pEF6/MycHisA, pEF6HisB, pUB82 or pUB83 with no inserted cDNA) that were analyzed in parallel. […]

[4] = substrate: OC[C@H]1OC[C@H](O)[C@@H](O)[C@@H]1O; assay: 1,5-AG uptake in HEK293T cells overexpressing SGLT5 variant Asn96Ile; type: cell-based, human; details: other: variant Asn96Ile (rs148178887); pH 7.4; 37.0 °C
Method: as §2, §5, §6

[5] = substrate: OC[C@H]1OC(O)[C@@H](O)[C@@H](O)[C@@H]1O; assay: Radioactive uptake assay (saturation kinetics) in HEK293T cells expressing mouse SGLT4; type: cell-based; details: other: 30 min, Supplementary Fig. 4; pH 7.4; 37.0 °C
Method: as §2
On day two, the radioactive uptake assay could be performed. […]
as §6
Supplementary Fig. 4: Transport activities for 1,5-anhydroglucitol and mannose of recombinant mouse SGLT4 and SGLT5 isoforms measured in HEK293T cells. […]

[6] = substrate: OC[C@H]1OC(O)[C@@H](O)[C@@H](O)[C@@H]1O; assay: Radioactive uptake assay (saturation kinetics) in HEK293T cells stably overexpressing human SGLT4; type: cell-based; details: other: transport of the labelled substrate, Fig. 2B; pH 7.4; 37.0 °C
Source text: as §1
as §2, with “CO2. […]” for “CO2.”
as §4

B1: human SGLT5 (Homo sapiens) (protein)
chain: MAANSTSDLHTPGTQLSVADIIVITVYFALNVAVGIWSSCRASRNTVNGYFLAGRDMTWWPIGASLFASSEGSGLFIGLAGSGAAGGLAVAGFEWNATYVLLALAWVFVPIYISSEIVTLPEYIQKRYGGQRIRMYLSVLSLLLSVFTKISLDLYAGALFVHICLGWNFYLSTILTLGITALYTIAGGLAAVIYTDALQTLIMVVGAVILTIKAFDQIGGYGQLEAAYAQAIPSRTIANTTCHLPRTDAMHMFRDPHTGDLPWTGMTFGLTIMATWYWCTDQVIVQRSLSARDLNHAKAGSILASYLKMLPMGLIIMPGMISRALFPDDVGCVVPSECLRACGAEVGCSNIAYPKLVMELMPIGLRGLMIAVMLAALMSSLTSIFNSSSTLFTMDIWRRLRPRSGERELLLVGRLVIVALIGVSVAWIPVLQDSNSGQLFIYMQSVTSSLAPPVTAVFVLGVFWRRANEQGAFWGLIAGLVVGATRLVLEFLNPAPPCGEPDTRPAVLGSIHYLHFAVALFALSGAVVVAGSLLTPPPQSVQIENLTWWTLAQDVPLGTKAGDGQTPQKHAFWARVCGFNAILLMCVNIFFYAYFA
notes: expressed in transfected cells
Km [1]: 1729 ± 568 µM | Km ([2]; other: hSGLT5 WT, Table 1 experiments): 226 ± 7 µM | Km ([2]; other: transport of the labelled substrate, Michaelis-Menten fit, Fig. 2B): 167 µM

B2: hSGLT5 Arg401His (Homo sapiens; R401H) (protein)
chain: MAANSTSDLHTPGTQLSVADIIVITVYFALNVAVGIWSSCRASRNTVNGYFLAGRDMTWWPIGASLFASSEGSGLFIGLAGSGAAGGLAVAGFEWNATYVLLALAWVFVPIYISSEIVTLPEYIQKRYGGQRIRMYLSVLSLLLSVFTKISLDLYAGALFVHICLGWNFYLSTILTLGITALYTIAGGLAAVIYTDALQTLIMVVGAVILTIKAFDQIGGYGQLEAAYAQAIPSRTIANTTCHLPRTDAMHMFRDPHTGDLPWTGMTFGLTIMATWYWCTDQVIVQRSLSARDLNHAKAGSILASYLKMLPMGLIIMPGMISRALFPDDVGCVVPSECLRACGAEVGCSNIAYPKLVMELMPIGLRGLMIAVMLAALMSSLTSIFNSSSTLFTMDIWRRLHPRSGERELLLVGRLVIVALIGVSVAWIPVLQDSNSGQLFIYMQSVTSSLAPPVTAVFVLGVFWRRANEQGAFWGLIAGLVVGATRLVLEFLNPAPPCGEPDTRPAVLGSIHYLHFAVALFALSGAVVVAGSLLTPPPQSVQIENLTWWTLAQDVPLGTKAGDGQTPQKHAFWARVCGFNAILLMCVNIFFYAYFA
notes: pUB83-hSGLT5-iso2 as well as the various SGLT5 mutants obtained were used to transduce HEK293T cells; expressed in transfected cells; host or cells: HEK293T, lentiviral transduction (pUB83)
Km [3]: 331 ± 13 µM

B3: hSGLT5 Asn96Ile (Homo sapiens; N96I) (protein)
chain: MAANSTSDLHTPGTQLSVADIIVITVYFALNVAVGIWSSCRASRNTVNGYFLAGRDMTWWPIGASLFASSEGSGLFIGLAGSGAAGGLAVAGFEWIATYVLLALAWVFVPIYISSEIVTLPEYIQKRYGGQRIRMYLSVLSLLLSVFTKISLDLYAGALFVHICLGWNFYLSTILTLGITALYTIAGGLAAVIYTDALQTLIMVVGAVILTIKAFDQIGGYGQLEAAYAQAIPSRTIANTTCHLPRTDAMHMFRDPHTGDLPWTGMTFGLTIMATWYWCTDQVIVQRSLSARDLNHAKAGSILASYLKMLPMGLIIMPGMISRALFPDDVGCVVPSECLRACGAEVGCSNIAYPKLVMELMPIGLRGLMIAVMLAALMSSLTSIFNSSSTLFTMDIWRRLRPRSGERELLLVGRLVIVALIGVSVAWIPVLQDSNSGQLFIYMQSVTSSLAPPVTAVFVLGVFWRRANEQGAFWGLIAGLVVGATRLVLEFLNPAPPCGEPDTRPAVLGSIHYLHFAVALFALSGAVVVAGSLLTPPPQSVQIENLTWWTLAQDVPLGTKAGDGQTPQKHAFWARVCGFNAILLMCVNIFFYAYFA
notes: as for B2
Km [4]: 1565 ± 302 µM

B4: mouse SGLT4 (Mus musculus) (protein)
chain: MNTELVAMEPGVSRNGVRTETTTNPSLGLHTYDIVVVVIYFVFVLAVGIWSSIRASRGTVGGYFLAGRSMTWWPIGASLMSSNVGSGLFIGLAGTGAAGGLAVGGFEWNATFLLLALGWIFVPVYIAAGVVTMPQYLKKRFGGQRIQVYMSVLSLILYIFTKISTDIFSGALFIQMALGWNLYLSTVILLVVTAVYTIAGGLTAVIYTDALQTVIMVGGALVLMFLGFQEVGWYPGLQQLYRQAIPNTTVPNTTCHLPRPDAFHMLRDPVNGDIPWPGLIFGLTVLATWCWCTDQVIVQRSLAAKNLSHAKGGSVLGGYLKILPMFFIVMPGMISRALYPDEVACVDPDICQRVCGARVGCSNIAYPKLVMALMPVGLRGLMIAVIMAALMSSLTSIFNSSSTLFAIDVWQRFRRQASEQELMVVGRLFVVFLVVISILWIPIIQSSNSGQLFDYIQSITSYLAPPITALFLLAIFCKRVNEPGAFWGLMFGLVVGILRMILEFSYSAPACGEMDRRPAVLKDFHYLYFALLLCGLTAIIIVVISFFTEPIPDDKLARLTWWTRNCAVSDLQKKTSVSVNNTEDDNSPGLAGRPVVEGPAGDEEEANTTQGPEQPGALHRSWGKWLWNWFCGLSGAPQQALSPAEKAVLEQKLTSIEEEPLWRRVCNINAIILLAINIFLWGYFA
notes: expressed in transfected cells; host or cells: HEK293T
Km [5]: 200 µM

B5: human SGLT4 (Homo sapiens) (protein)
chain: MSKELAAMGPGASGDGVRTETAPHIALDSRVGLHAYDISVVVIYFVFVIAVGIWSSIRASRGTIGGYFLAGRSMSWWPIGASLMSSNVGSGLFIGLAGTGAAGGLAVGGFEWNATWLLLALGWVFVPVYIAAGVVTMPQYLKKRFGGQRIQVYMSVLSLILYIFTKISTDIFSGALFIQMALGWNLYLSTGILLVVTAVYTIAGGLMAVIYTDALQTVIMVGGALVLMFLGFQDVGWYPGLEQRYRQAIPNVTVPNTTCHLPRPDAFHILRDPVSGDIPWPGLIFGLTVLATWCWCTDQVIVQRSLSAKSLSHAKGGSVLGGYLKILPMFFIVMPGMISRALFPDEVGCVDPDVCQRICGARVGCSNIAYPKLVMALMPVGLRGLMIAVIMAALMSSLTSIFNSSSTLFTIDVWQRFRRKSTEQELMVVGRVFVVFLVVISILWIPIIQSSNSGQLFDYIQAVTSYLAPPITALFLLAIFCKRVTEPGAFWGLVFGLGVGLLRMILEFSYPAPACGEVDRRPAVLKDFHYLYFAILLCGLTAIVIVIVSLCTTPIPEEQLTRLTWWTRNCPLSELEKEAHESTPEISERPAGECPAGGGAAENSSLGQEQPEAPSRSWGKLLWSWFCGLSGTPEQALSPAEKAALEQKLTSIEEEPLWRHVCNINAVLLLAINIFLWGYFA
notes: as for B1
Km [6]: 81 ± 8 µM
